Source: PMC4315436

Target: LGF2
Test: two-hybrid; BacterioMatch II bacterial two-hybrid in E. coli reporter cells; bait in pBT as λcI fusion, prey in pTRG as RNAPα fusion; 30 ng each of bait and prey vector; HIS3 reporter, cfu on selective screening medium with 3-AT; three repeats, mean ± 1 SD

**Q.** For Gal11^P (domain or fragment), which cfu on selective screening medium (with 3-AT) is on record?
**A.** The cfu on selective screening medium (with 3-AT) was 1000 cfu.
